# Test results taken from the nanobody polyreactivity screen of Harvey et al. (2022).
# Test: yeast display, Sf9 membrane polyspecificity reagent, FACS + sequencing; frameworks hold sequencing errors
# Method in brief: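 After 36–48 hours of galactose induction, yeast (Saccharomyces cerevisiae BJ5465) displaying a synthetic nanobody library were stained at 4 °C for 1 hour with 10% biotinylated, detergent-solubilized Sf9 membrane reagent. Streptavidin microbeads enriched the stained cells before FACS sorting into low and high (top ~1%) gates on anti-HA and streptavidin fluorescence. Each clone's polyreactivity label reflects its gate of origin.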
row,Sequence,polyreactivity (PSR sort gate)
1,QVQLVESGGGLVQAGGSLRLSCAASGSTFGYYTKGWYRQAPGKERELVAAITWSGGSTYYADSVKGRFTISRDNAKNTVYLQMNSLKPEDTAVYYCAADDYWTPFGYWGQGTQVTVSS,low polyreactivity
2,QVQLVESGGGLVQAGGSLRLSCAASGSTFGYYTMGWYRQAPGKERELVAAISRSGGRTYYADSVKGRFTISRDNAKNAVYLQMNSLKPEDTAVYYCNADGTRYAGDDYWGQGTQVTVSS,high polyreactivity
3,QVQLVESGGGLVQAGGSLRLSCAASGSTFGYYTMGWYRQAPGKERELVAAISYSGGRTFYADSVKGRFTISRDNAKNTVFLQMHCLKPEDTAVYYCNNRYIPSFLSHLDYWGQGTHVTVSS,high polyreactivity
4,QVQLVESGGGLVQAGGSLRLSCAASGSTFHFYAMGWYRQAPGKERELVASITSRGGNTHYADSVKGRFTISRDNAKNTVYLQMNRLKPEDTAVYYCAARGGWYGTYDYLGQGTQVTVSS,low polyreactivity
5,QVQLVESGGGLVQAGGSLRLSCAASGSTFHGYALGWYRQAPGKERELVAAISWSGGRTYYADSVKGRFTISRDNAKNTVYLQMNSLKPEDTAVYYCNKDGYYRWQSTYLANRYDYWGQGTQVTVSS,high polyreactivity
6,QVQLVESGGGLVQAGGSLRLSCAASGSTFHKYAMGWYRQAPGKEREFVAAISWSGGSTYYADSVKGRFTISRDNAKNTVYLQMNSLKPEDTAVYYCAAKGGVSRARWRSIFWHDYWGQGTQVTVSS,high polyreactivity
7,QVQLVESGGGLVQAGGSLRLSCAASGSTFHLYAMGWYRQAPGKERELVAAITRGGGSTYYADSVKGRFTISRDYAKNTVYLQMNSLKPEDTAVYYCNARGPSSYRYEYWGQGTQVTVSS,high polyreactivity
8,QVQLVESGGGLVQAGGSLRLSCAASGSTFHPYAMGRYRQAPGKERELVAAITWRVGSTYYADSVKGRFTISRDNAKNSVYLQMNSLKPEDTAVYYCAVSYLSTLGRSRYDYWGQGTQVTVSS,low polyreactivity
9,QVQLVESGGGLVQAGGSLRLSCAASGSTFHRYTMGWYRQAPGKERELVAAISSGVNTDYADSVKGRFTISRDNAKNTVYLQMNSLKPEDTEVYYCNTSFGSPQVVRYEYWGQGTQVTVSS,low polyreactivity
10,QVQLVESGGGLVQAGGSLRLSCAASGSTFHSNAMGWYRQAPGKERELVAAISQGGGRTYYADSVKGRFSISRDNAKNTVYLQMNSLKPEDTAVYYCNRRTRGLIDGGMDYWGQGTQGTVSS,low polyreactivity
11,QVQLVESGGGLVQAGGSLRLSCAASGSTFHYYAMGWYRQAPGKERELVAAINSGARTYYADSVKGRFTISRDNAKNTVYLQMNSLKTEDTAVYYCNKAFQWSGGQVSYDYWGQGTQVTVSS,low polyreactivity
12,QVQLVESGGGLVQAGGSLRLSCAASGSTFHYYARGWYSQAPGKDRELVAAIRTSGGSTYYADSVKGRFTISRDNEKNTVYLLMNCLKPEDTAVYYCNRVLGYPYGVDYWGQGTQVTVSS,high polyreactivity
13,QVQLVESGGGLVQAGGSLRLSCAASGSTFIDYAMGWYRQAPGKERELVAAITNGGNTKYADSVKGRFTISRDNAKNTVYLLMISLNPEDTAVYYCAREPSIFTPSYDYWGQGTQVTVSS,low polyreactivity
14,QVQLVESGGGLVQAGGSLRLSCAASGSTFIGFAMGWYRQAPGKERELVAAITSDGRTNYADSVKGRFTISRDNAKNTVYLQMNSLKPEDTAVYYCAAQILGTFYEYDYWGQGTQVTVSS,low polyreactivity
15,QVQLVESGGGLVQAGGSLRLSCAASGSTFIGNAMGWYRQAPGKERELVAAITRSGGSTFYADSVKGRFTISRDNAKNTVYLQMNSLKPEDTAVYYCAAKGNPYRVPGSSYPKVNYWGQGTQVTVSS,high polyreactivity
16,QVQLVESGGGLVQAGGSLRLSCAASGSTFIGSDMGWYRQAPGKERELVAAISYSDGTYYADSVKGRFTISRDNAKNTVYLQMNSLKPEDTAVYYCATSYRDIGSHVGYWGQGTQVTVSS,low polyreactivity
17,QVQLVESGGGLVQAGGSLRLSCAASGSTFIGYAMGWYRHAPGKERELVAGINWSSGSTNYADSVKGRFTISRDNAKNTVYLQMNSLIPEDTAVYYCAADLYWYAHREEYDYWGQGTQVTVSS,high polyreactivity
18,QVQLVESGGGLVQAGGSLRLSCAASGSTFILNAMGSYRQAPGKERELVAAISLSGGSTYYADSVKGRFTISRDNAKNTVYLQMNSQKPEDTAVYYCAAEQWYDNYLEYDYWGQGTQVTLSS,high polyreactivity
19,QVQLVESGGGLVQAGGSLRLSCAASGSTFILYAMGWYRHAPGKERELVAAISRSTGITYYADSVKGRFTISRDNAKNTVYLQMNSLKPEDTAGYYCAADAWGYNDYDASYSTGYEYWGQGTQVTVSS,high polyreactivity
20,QVQLVESGGGLVQAGGSLRLSCAASGSTFILYAMGWYRQAPGKERELVAAISSDGSTYYADSVKGRFTISRDNAKNTVYLQMNSLKPEDTAVYYCAAYGYDADTGYDYWGLGTQVTVSS,low polyreactivity
21,QVQLVESGGGLVQAGGSLRLSCAASGSTFINYAKGWYRHAPGKERELVAAYADSVKGRFSISRDNAKNTVYLQMNSLKPEDTAVYYCAARGTIYVLGVPARPVPDGDYWGQGTQVTVSS,low polyreactivity

row,Sequence,polyreactivity (PSR sort gate)
1,QVQLVESGGGLVQAGGSLRLSCAASGSTFINYAMGWYRQAPGKERELVATISSNGGSTYYADSVKGRFTISRDNAKNTVYLQMNRLKPEDTAVYYCAADGKQYGFYYWGQGTQVTVSS,low polyreactivity
2,QVQLVESGGGLVQAGGSLRLSCAASGSTFIRNAMGWYRQAPGKERELVAAISGSGVSTRYADSVKGRFTISRDNAKNTVYLQMNSLKPEDTAVYYCAKRKQYPYTMGYWGQGTQVTVSS,high polyreactivity
3,QVQLVESGGGLVQAGGSLRLSCAASGSTFISYAMGWSRQAPGKERELVAAISSSTGRTYYADSVKGRVTISRDNAKNTVYLQMNSLKPEDTAVYYCNAVHRYERDYWGQGTQVTVSS,high polyreactivity
4,QVQLVESGGGLVQAGGSLRLSCAASGSTFIVYAMGWYRQAPGKERELVAAITASGGSTYADSVKGRFTISRDNAKNTVYLQMNSLKPEDTAVYYCAARRWSRKYRKYDYWGQGTQVTVSS,high polyreactivity
5,QVQLVESGGGLVQAGGSLRLSCAASGSTFIYNAMGWYRQAPGKERELVAGITGSGGSTYYADSVKGRFTISRDNAKNNVYLQMNSLKPEDTAVYYCAADRHIHYTDARMDYWGQGTQVTVSS,low polyreactivity
6,QVQLVESGGGLVQAGGSLRLSCAASGSTFKAYAMGWYRQAPGKERELVAAITNSDGDTYYADSVKGRFTISRDNAKNTVYLQMNSLKPEDTAVYYCIADTGKWGGNGWYEFDYWGQGTQVTVSS,low polyreactivity
7,QVQLVESGGGLVQAGGSLRLSCAASGSTFKFNAMGWYRQAPGKETELVATITSRGSRTYYADSVKGRFTISRDNAKNTVYLQMNSLKPEDTAVYYCAARVFRPYGSLYDYWGQGTQVTVSS,high polyreactivity
8,QVQLVESGGGLVQAGGSLRLSCAASGSTFKFYAMGWYRQAPGKERELVASITSSSGPTYYADSVKGRFTISRDNAKNTVYLQLNSLKPEDTAVDYCAKRPIRYYHLLRGNYWGQGTQVTVSS,low polyreactivity
9,QVQLVESGGGLVQAGGSLRLSCAASGSTFKFYTMGWYRQAPGKERELVATIDWSGGSTYYADSVKGRFTISRDNAKNTVYLQMNSLKPEDTSVYYCAAYSRSRTTRLGKYYYWGQGTQVTVSS,high polyreactivity
10,QVQLVESGGGLVQAGGSLRLSCAASGSTFKGNAMGWYRQAPGKERELVAAITFSGGSTYYADSVKGRFTISRDNAKNTVYLQMNSLKPEDTAVYYCAKGEWVYWRPWYEYWGQGTQVTVSS,low polyreactivity
11,QVQLVESGGGLVQAGGSLRLSCAASGSTFKGYSMGWYRQAPGKERALVAAISRSGTRTYYADSVKGRFTISRDNAKNTVYLHMTILKPEVTAVYYCNKVTGFIAHDNEKGRDYWGQGTQVTVSS,low polyreactivity
12,QVQLVESGGGLVQAGGSLRLSCAASGSTFKGYTMGWYRQAPGKEREFVATITFSDGSTYYADCVKGRFTISRDNAKNTVYLQMNSLKPAVTAVYYCNVDSPIGYDYWGQGTQVTVSS,low polyreactivity
13,QVQLVESGGGLVQAGGSLRLSCAASGSTFKINAMGWYRQAPGKERELVAAIRSRGGGTYYADSVKGRFTISRDNAKNTVYLQMNSLKPEDTAVYYCAATRRYHFDYWGQGTQVTVSS,high polyreactivity
14,QVQLVESGGGLVQAGGSLRLSCAASGSTFKIYAMGWYRQAPGKERELVARITGRGGSTYYADSVKGRFTISRDNAKNTVYLQMNSLKPEDTAVYYCAARVYTFYYDLHKRYYWGQGTQVNVSS,high polyreactivity
15,QVQLVESGGGLVQAGGSLRLSCAASGSTFKKYAMGWYRQAPGKERELVAAITWTGGSTYYADSVKGRFTISRDNAKNTVYLQMNSLKPEDTAVYYCAAYKTYAVKYYWGQGTQVTVSS,high polyreactivity
16,QVQLVESGGGLVQAGGSLRLSCAASGSTFKNNAMGWYRQEPGKEREFVASISKRGGSTYYADSVKGRFTISRDNAKNTVYLQMNSLKPEDTAVDYCAKTYWSYGWSHGDYGEFDYWGQGTQVTVSS,high polyreactivity
17,QVQLVESGGGLVQAGGSLRLSCAASGSTFKPNAMGWYRQAPGKERELVAGISGRGGSTNYADSVKGRFTISRDNAKNTVYLQMNRLKPEDTAVYYCAKDAYPLWLTRYNYWGQGTQVTVSS,low polyreactivity
18,QVQLVESGGGLVQAGGSLRLSCAASGSTFKPYAMGWYRQAPGKERELVAAITWSSGSTYYADSVKGRFTISRDNAKNTVYLQMNSLKPEDTAVYYCARDRYSVFEYDYWGQGTQVTVSS,low polyreactivity
19,QVQLVESGGGLVQAGGSLRLSCAASGSTFKPYPMGWYRQAPGKERELVADITGGGSTNYADSVKGRFTNSRDNAKNTVYLEMNSLKPEDTGVYYCNATYLLKYRYYDSTRYDYWGQGTQVTVSS,low polyreactivity
20,QVQLVESGGGLVQAGGSLRLSCAASGSTFKQYAMGWYRQAPGKERELVADINVRDGGTYYADSVKGRFTISRDNAKNTVYLQMNSLKPEDTAVYYCAKDYYACYWEMDYWGQGTQVTVSS,low polyreactivity
